Experimental data taken from the supplement of paper PMC7877785.
± gives the uncertainty stated by the source.

Assay: self-splicing fitness, log relative to wild type (ln ratio); higher = more splicing; Tetrahymena group I intron in knt gene, E. coli kanamycin selection, DiMSum; sequences stand for … in CUCUCU…GGAGGGAAAAGUUAUCAGGCAUGCACCUGGUAGCUAGUCUUUAAACCAAUAGAUUGCAUCGGUUUAAAAGGCAAGACCGUCAAAUUGCGGGAAAGGGGUCAACAGCCGUUCAGUACCAAGUCUCAGGGGAAACUUUGAGAUGGCCUUGCAAAGGGUAUGGUAAUAAGCUGACGGACAUGGUCCUAACCACGCAGCCAAGUCCUAAGUCAACAGAUCUUCUGUUGAUAUGGAUGCAGUUCACAGACUAAAUGUCGGUCGGGGAAGAUGUAUUCUUCUCAUAAGAUAUAGUCGGACCUCUCCUUAAUGGGAGCUAGCGGAUGAAGUGAUGCAACACUGGAGCCGCUGGGAACUAAUUUGUAUGCGAAAGUAUAUUGAUUAGUUUUGGAGUACUCGUGGUCG
Outline: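 Library with all eight P1ex-region intron nucleotides randomised, intron inside the knt kanamycin-resistance gene on pET-22b(+), in E. coli BL21(DE3). Cells grew overnight at 37°C or 30°C on LB agar with or without 25 μg/mL kanamycin (plus 100 μg/mL carbenicillin, 50 μM IPTG, 0.2% rhamnose), in six replicate transformations. Pooled colonies were amplicon-sequenced on Illumina HiSeq 2500. DiMSum fitness is the error-weighted combination of wild-type-normalised replicate fold changes, kanamycin versus none.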

Sequence	self-splicing fitness (ln) (30 °C)	self-splicing fitness (ln) (37 °C)
ACCAAGCAAUAUUACGCUAC	-2.89 ± 0.13	-0.773 ± 0.1
ACCAAGCAAUAUUACGCUUA	-1.86 ± 0.11	-1.08 ± 0.11
ACCAAGCAAUAUUACGGAGG	-1.63 ± 0.12	-1.8 ± 0.29
ACCAAGCAAUAUUACGGCAA	-0.915 ± 0.08	-0.348 ± 0.099
ACCAAGCAAUAUUACGGGCC	-2.26 ± 0.085	-2.07 ± 0.096
ACCAAGCAAUAUUACGGGUA	-1.98 ± 0.091	-0.405 ± 0.072
ACCAAGCAAUAUUACGGUAA	-2.9 ± 0.14	-2.02 ± 0.12
ACCAAGCAAUAUUACGGUAC	-3.83 ± 0.22	-1.16 ± 0.15
ACCAAGCAAUAUUACGGUGU	-3.43 ± 0.11	-2.18 ± 0.11
ACCAAGCAAUAUUACGGUUG	-3.21 ± 0.11	-3.88 ± 0.23
ACCAAGCAAUAUUACGUACA	-1.46 ± 0.079	-1.05 ± 0.085
ACCAAGCAAUAUUACGUCGG	-2.09 ± 0.074	-1.36 ± 0.09
ACCAAGCAAUAUUACGUCUA	-1.29 ± 0.11	-0.982 ± 0.1
ACCAAGCAAUAUUACGUUAG	-3.94 ± 0.17	-2.83 ± 0.17
ACCCAGCAAUAUUACGACGA	-0.509 ± 0.084	-0.36 ± 0.086
ACCCAGCAAUAUUACGACUA	-0.803 ± 0.082	-0.765 ± 0.086
ACCCAGCAAUAUUACGACUC	-0.5 ± 0.061	-0.482 ± 0.079
ACCCAGCAAUAUUACGAGAU	-1.72 ± 0.061	-0.655 ± 0.073
ACCCAGCAAUAUUACGAGCU	-4.29 ± 0.21	-2.17 ± 0.14
ACCCAGCAAUAUUACGAUCC	-1.96 ± 0.079	-1.17 ± 0.12
ACCCAGCAAUAUUACGAUUC	-1.71 ± 0.046	-0.7 ± 0.063
ACCCAGCAAUAUUACGCAGC	-1.41 ± 0.068	-0.445 ± 0.068
ACCCAGCAAUAUUACGCCAA	-2.43 ± 0.15	-2.03 ± 0.15
ACCCAGCAAUAUUACGCCGG	-3.06 ± 0.16	-2.96 ± 0.26

Sequence	self-splicing fitness (ln) (30 °C)	self-splicing fitness (ln) (37 °C)
ACCCAGCAAUAUUACGCGAU	-1.84 ± 0.1	-1.47 ± 0.11
ACCCAGCAAUAUUACGCGCG	-1.66 ± 0.077	-0.872 ± 0.097
ACCCAGCAAUAUUACGCUCU	-0.186 ± 0.058	0.107 ± 0.067
ACCCAGCAAUAUUACGCUGC	-3.77 ± 0.26	-2.88 ± 0.27
ACCCAGCAAUAUUACGGCGA	-0.786 ± 0.076	0.532 ± 0.096
ACCCAGCAAUAUUACGGCUG	-3.68 ± 0.2	-2.06 ± 0.18
ACCCAGCAAUAUUACGGGCU	-1.68 ± 0.07	-0.729 ± 0.072
ACCCAGCAAUAUUACGGUAG	-3.82 ± 0.11	-2.97 ± 0.16
ACCCAGCAAUAUUACGUAAA	-0.691 ± 0.053	-0.513 ± 0.075
ACCCAGCAAUAUUACGUACG	-2.2 ± 0.14	-1.71 ± 0.16
ACCCAGCAAUAUUACGUAGC	-0.673 ± 0.044	-0.163 ± 0.064
ACCCAGCAAUAUUACGUAGU	0.0959 ± 0.045	0.0745 ± 0.058
ACCCAGCAAUAUUACGUGGA	-0.54 ± 0.048	0.15 ± 0.057
ACCCAGCAAUAUUACGUUCA	-0.957 ± 0.061	-0.811 ± 0.071
ACCCAGCAAUAUUACGUUGA	-1.66 ± 0.073	-1.03 ± 0.075
ACCCAGCAAUAUUACGUUGU	-0.339 ± 0.043	-0.0259 ± 0.057
ACCGAGCAAUAUUACGAAGA	-3.11 ± 0.28	-2.54 ± 0.29
ACCGAGCAAUAUUACGACAC	-3.48 ± 0.38	-1.73 ± 0.26
ACCGAGCAAUAUUACGACUG	-2.73 ± 0.17	-1.04 ± 0.16
ACCGAGCAAUAUUACGAGUG	-2.82 ± 0.11	-1.49 ± 0.094
ACCGAGCAAUAUUACGAUGG	-2.27 ± 0.094	-1.39 ± 0.11
ACCGAGCAAUAUUACGCACC	-2.84 ± 0.22	-1.08 ± 0.21
ACCGAGCAAUAUUACGCCCU	-2.6 ± 0.25	0.248 ± 0.21
